In one assay the target is PCSK9 protein (UniProt Q8NBP7). As to the kind of experiment: PCSK9-LDLR in vitro binding assay kit, OD450/540; peptide 50 µM, PCSK9 75 ng/mL; inhibition of PCSK9 binding to LDLR.
Assay [1] deals with bovine trypsin (bovine), P00760. As to the kind of experiment: cell-based or functional assay.
bovine trypsin (bovine), P00760, sequence (P00760 24-246): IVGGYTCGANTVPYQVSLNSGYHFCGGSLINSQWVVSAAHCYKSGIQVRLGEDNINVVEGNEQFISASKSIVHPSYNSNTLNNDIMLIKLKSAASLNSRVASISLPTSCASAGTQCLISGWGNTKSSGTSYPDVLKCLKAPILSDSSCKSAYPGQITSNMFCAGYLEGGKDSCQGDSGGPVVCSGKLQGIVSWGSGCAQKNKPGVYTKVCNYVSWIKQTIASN

B1: PCSK9_13 (peptide)
peptide: GTNEALDNNCGRATKSIPPICFTVFTS
For B1, the Inhibitory rate (%) with PCSK9 protein worked out at 15.8%.

B2: BT1 (peptide)
peptide: GRCTKSIPPICFPD
modifications: not checked
As for B2, in assay [1], the residual trypsin activity at 0.0000098 µM BT1 is 102%, the residual trypsin activity at 0.000098 µM BT1 is 102%, the residual trypsin activity at 0.00098 µM BT1 is 101% and the residual trypsin activity at 0.02439 µM BT1 worked out at 69.6%. Moreover, in assay [1], the residual trypsin activity at 0.0488 µM BT1 came to 24.1%, the residual trypsin activity at 0.098 µM BT1 is 3.3%, the residual trypsin activity at 0.98 µM BT1 stood at 0% and the residual trypsin activity at 9.76 µM BT1 turned out to be 0%.

These data come from patent publication US20230416329A1, “A PEPTIDE WITH DISULFIDE BONDS AND INHIBITORY ACTIVITY AGAINST SERINE PROTEASES, DERIVED HYBRID PEPTIDES THEREOF, AND USES THEREOF” (INSTITUTE OF MATERIA MEDICA , CHINESE ACADEMY OF MEDICAL …, priority 2020, published 2023).
